In one assay the target is hJAG1 DSL-EGF1-3 protein (Homo sapiens, UniProt P78504). Description: SPR. On the technique in general: In SPR one partner is held on a chip, and binding of the other changes the refractive index at the surface.
Assay [1] addresses murine Jagged1 (mJag1), on transfected B16F10 cells (mouse, UniProt Q9QXX0). Description: flow cytometry on cells. For orientation: In flow cytometry, cells or beads pass a laser one at a time.
Assay [2] deals with human JAGGED2 (hJAG2), on transfected HEK293 cells (Homo sapiens, UniProt Q9Y219). Nature of the assay: flow cytometry on cells.
Sequence of human JAGGED2 (hJAG2), on transfected HEK293 cells (Q9Y219 24-1238): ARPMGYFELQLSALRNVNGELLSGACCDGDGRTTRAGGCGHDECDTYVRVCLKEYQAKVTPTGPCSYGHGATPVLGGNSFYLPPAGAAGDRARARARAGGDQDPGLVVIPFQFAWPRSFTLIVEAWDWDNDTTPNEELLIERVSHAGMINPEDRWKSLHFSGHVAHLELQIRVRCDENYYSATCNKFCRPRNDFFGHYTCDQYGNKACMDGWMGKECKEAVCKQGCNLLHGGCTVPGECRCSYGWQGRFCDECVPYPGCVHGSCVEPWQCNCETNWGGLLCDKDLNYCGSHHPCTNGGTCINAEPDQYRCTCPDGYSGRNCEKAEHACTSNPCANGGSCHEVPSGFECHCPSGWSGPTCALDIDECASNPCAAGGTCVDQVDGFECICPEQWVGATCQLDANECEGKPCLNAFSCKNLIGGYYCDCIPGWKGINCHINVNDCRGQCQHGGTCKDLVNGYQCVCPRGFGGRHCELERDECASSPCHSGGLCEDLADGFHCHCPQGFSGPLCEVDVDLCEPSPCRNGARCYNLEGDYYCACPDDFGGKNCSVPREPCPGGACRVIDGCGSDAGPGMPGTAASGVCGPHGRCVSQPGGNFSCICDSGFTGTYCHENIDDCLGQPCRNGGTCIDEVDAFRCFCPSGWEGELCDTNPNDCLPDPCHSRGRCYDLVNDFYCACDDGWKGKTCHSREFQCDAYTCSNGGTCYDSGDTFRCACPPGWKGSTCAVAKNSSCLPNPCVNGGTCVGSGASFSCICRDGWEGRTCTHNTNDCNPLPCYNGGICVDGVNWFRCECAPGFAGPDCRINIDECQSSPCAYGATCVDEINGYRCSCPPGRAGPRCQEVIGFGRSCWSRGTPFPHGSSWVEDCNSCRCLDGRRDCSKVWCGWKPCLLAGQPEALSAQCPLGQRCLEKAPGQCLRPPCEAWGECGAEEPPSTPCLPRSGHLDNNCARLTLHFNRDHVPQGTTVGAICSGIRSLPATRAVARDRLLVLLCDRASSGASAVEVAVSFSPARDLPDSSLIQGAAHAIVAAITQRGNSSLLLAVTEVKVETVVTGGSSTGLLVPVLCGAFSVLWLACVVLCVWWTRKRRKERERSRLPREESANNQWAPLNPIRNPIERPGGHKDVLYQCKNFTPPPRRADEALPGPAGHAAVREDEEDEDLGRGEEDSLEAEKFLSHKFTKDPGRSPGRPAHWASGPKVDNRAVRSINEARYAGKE
Assay [3] concerns the target human DLL4 (hDLL4), on transfected B16F10 cells (Homo sapiens, UniProt Q9NR61). Nature of the assay: flow cytometry on cells.
For assay [4], the target named is JAG1 (target of the affinity printed for hJ1-65Dv9) (UniProt P78504).
Sequence of JAG1 (target of the affinity printed for hJ1-65Dv9) (P78504 34-1218): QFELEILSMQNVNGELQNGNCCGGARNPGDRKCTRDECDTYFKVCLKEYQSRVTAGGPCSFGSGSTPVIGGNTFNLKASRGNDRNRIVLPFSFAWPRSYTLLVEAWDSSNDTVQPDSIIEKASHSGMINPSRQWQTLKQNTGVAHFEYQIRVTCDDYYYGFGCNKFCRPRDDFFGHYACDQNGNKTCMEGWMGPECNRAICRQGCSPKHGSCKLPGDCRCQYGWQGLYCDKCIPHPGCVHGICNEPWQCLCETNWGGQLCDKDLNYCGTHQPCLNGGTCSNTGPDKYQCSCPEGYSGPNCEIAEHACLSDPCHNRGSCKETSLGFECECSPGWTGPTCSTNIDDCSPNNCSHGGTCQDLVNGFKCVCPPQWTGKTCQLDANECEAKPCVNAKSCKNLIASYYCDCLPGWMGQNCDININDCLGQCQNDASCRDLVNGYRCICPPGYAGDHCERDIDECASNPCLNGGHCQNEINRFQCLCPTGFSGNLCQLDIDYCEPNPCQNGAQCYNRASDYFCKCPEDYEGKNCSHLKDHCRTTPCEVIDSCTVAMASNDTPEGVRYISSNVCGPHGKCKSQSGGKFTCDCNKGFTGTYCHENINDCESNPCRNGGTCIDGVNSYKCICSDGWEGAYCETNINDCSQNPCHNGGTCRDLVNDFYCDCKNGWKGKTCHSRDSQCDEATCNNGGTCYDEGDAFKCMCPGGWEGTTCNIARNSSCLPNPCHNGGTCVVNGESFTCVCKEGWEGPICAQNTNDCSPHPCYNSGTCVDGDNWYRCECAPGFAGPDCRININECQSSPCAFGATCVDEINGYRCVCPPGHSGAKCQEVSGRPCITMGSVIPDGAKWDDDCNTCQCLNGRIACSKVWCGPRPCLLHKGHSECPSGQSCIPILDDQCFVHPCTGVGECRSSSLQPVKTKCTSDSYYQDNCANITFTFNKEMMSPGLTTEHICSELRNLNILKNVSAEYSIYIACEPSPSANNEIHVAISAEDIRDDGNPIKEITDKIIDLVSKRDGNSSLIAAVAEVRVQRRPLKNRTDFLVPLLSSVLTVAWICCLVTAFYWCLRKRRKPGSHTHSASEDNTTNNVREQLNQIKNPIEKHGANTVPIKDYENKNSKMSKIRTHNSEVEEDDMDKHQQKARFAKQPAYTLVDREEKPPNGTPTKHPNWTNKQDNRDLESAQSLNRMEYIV

Experimental findings from publication PMC7611158 (Molecular cancer therapeutics, 2019) are described below.

Sequence of murine Jagged1 (mJag1), on transfected B16F10 cells (Q9QXX0 34-1218, one chain of several): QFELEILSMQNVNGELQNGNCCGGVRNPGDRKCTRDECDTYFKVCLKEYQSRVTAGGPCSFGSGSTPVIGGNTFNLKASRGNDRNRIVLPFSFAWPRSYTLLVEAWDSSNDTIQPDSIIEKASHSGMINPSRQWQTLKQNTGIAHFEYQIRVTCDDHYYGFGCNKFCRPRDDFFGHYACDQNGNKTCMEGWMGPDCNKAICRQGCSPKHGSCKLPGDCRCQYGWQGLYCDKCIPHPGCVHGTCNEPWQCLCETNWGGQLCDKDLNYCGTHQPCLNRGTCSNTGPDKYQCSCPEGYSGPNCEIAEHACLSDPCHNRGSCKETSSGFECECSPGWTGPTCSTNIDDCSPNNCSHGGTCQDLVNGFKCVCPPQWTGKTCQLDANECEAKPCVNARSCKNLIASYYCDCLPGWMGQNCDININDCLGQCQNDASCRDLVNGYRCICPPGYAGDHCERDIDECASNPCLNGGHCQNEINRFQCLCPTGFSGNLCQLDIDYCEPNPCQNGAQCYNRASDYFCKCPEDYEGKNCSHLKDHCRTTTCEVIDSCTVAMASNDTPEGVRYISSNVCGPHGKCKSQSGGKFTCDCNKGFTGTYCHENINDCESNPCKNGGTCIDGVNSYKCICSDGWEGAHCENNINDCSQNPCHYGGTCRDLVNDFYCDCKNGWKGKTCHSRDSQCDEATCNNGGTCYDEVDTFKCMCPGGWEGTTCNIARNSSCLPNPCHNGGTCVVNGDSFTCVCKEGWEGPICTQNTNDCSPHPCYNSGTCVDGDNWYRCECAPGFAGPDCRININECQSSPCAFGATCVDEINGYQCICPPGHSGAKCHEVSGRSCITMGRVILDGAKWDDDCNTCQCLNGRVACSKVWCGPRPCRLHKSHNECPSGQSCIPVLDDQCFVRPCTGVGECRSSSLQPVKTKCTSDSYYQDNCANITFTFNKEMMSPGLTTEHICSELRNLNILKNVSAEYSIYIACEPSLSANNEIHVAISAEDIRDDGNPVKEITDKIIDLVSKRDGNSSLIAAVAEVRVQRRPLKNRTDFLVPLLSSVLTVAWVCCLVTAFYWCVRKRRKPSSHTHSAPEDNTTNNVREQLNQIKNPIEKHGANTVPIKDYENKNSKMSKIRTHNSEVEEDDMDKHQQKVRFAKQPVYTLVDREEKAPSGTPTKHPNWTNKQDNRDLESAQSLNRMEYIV
Sequence of hJAG1 DSL-EGF1-3 protein (P78504 185-335): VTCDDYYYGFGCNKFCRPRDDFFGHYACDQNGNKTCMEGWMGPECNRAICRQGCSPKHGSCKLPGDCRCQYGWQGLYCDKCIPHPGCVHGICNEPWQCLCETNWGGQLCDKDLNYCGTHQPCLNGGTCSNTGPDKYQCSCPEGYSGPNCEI
Sequence of human DLL4 (hDLL4), on transfected B16F10 cells (Q9NR61 27-685, one chain of several): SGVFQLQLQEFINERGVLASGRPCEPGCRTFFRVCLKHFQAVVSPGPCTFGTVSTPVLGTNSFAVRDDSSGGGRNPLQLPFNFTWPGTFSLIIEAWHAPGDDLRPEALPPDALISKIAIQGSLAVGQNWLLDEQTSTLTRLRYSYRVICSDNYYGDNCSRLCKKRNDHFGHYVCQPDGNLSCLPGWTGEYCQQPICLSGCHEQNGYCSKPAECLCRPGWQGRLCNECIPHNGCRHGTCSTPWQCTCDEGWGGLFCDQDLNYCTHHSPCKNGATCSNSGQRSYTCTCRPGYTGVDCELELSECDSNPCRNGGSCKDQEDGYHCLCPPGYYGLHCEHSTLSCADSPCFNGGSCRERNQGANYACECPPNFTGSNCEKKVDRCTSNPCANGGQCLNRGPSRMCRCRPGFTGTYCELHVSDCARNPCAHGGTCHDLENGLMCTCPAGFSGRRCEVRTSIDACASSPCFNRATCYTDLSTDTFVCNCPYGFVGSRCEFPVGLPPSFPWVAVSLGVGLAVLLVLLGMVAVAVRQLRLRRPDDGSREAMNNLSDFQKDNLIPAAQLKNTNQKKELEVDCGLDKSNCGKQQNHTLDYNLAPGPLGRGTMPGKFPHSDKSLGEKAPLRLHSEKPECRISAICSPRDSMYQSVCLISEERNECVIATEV

B1: J1-183D (antibody, V domains shown)
VH: QVQLQQPGTELVRPGVSVKISCKVSGYAFTDYAIHWIMQSHAKSLEWIGIINTYYGDSKYNQKFKDKATMTVDKSSNTAYMELARLTSEDSAIYYCARGYDGFAYWGQGTLVTVSS
VL: DIQLTQSPASLSASVGETVTFTCRTSENIYSYLTWYQQKQGKSPQLLVYNAKILAAGVPSRFSGYGSGTQFSLKINSLQPEDFGTYYCQHHYDIPWTFGGGTKLEIK
As a reminder, the Kd is the free concentration of one partner at which half of the binding sites on the other are occupied at equilibrium, for simple one-to-one binding. Read a low Kd as a tighter complex. In the assay with hJAG1 DSL-EGF1-3 protein, B1 yielded a Kd of 4.9 nM. The binding result in assay [1], in assay [2] and in assay [3] was “no binding” each time.

B2: J1-65D (antibody, V domains shown)
VH: QVQLQQPGAELVRPGASVKLSCKALGYTFTDYEMHWVKETPVHGLEWIGAIQPGGGGTAYNQKFKGKATLTADKSSSTAYMELSSLTSEDSAVYYCTRRGYDDYPFAYWGQGTLVTVSS
VL: DIQLTQSPASLSASVGETVTITCRASGNIHNYLAWYQQKQGKSPQLLVYNAKTLADDIPSRFSGSGSGTQYSLKINSLQPEDFGSYYCQHFWSAPWTFGGGTKLEIK
In the case of B2, the Kd with hJAG1 DSL-EGF1-3 protein worked out at 9.7 nM. Besides, the binding result in assay [1], in assay [2] and in assay [3] was “no binding” in each case.

B3: hJ1-65Dv9 (antibody, V domains shown)
VH: QVQLVQSGAELKKPGSSVKVSCKASGYTFTDYEMHWVRQAPGQGLEWMGAIQPGGGGTAYNQKFKGRVTLTADKSTSTAYMELSSLRSEDTAVYYCTRRGYDDYPFAYWGQGTLVTVSS
VL: DIQMTQSPSSLSASVGDRVTITCRASGNIHNYLAWYQQKPGKAPKLLIYNAKTLADAVPSRFSGSGSGTDYTLTISSLQPEDFATYYCQHFWSAPWTFGQGTKLEIK
B3 showed a Kd in assay [4] of 0.0139 nM.
